Measurements as given in publication PMC11853100.

Biological target: Streptococcus pneumoniae pneumolysin, recombinant (Streptococcus pneumoniae strain R6) (UniProt Q04IN8)
Experiment: ITC; chaperone in the syringe, Ply in the sample cell; 20 mM MES, 100 mM NaCl, 1 mM beta-mercaptoethanol, 10% glycerol, pH 6.5, 25 C; independent binding model

Streptococcus pneumoniae SlrA (from UniProt Q8DQG5 19-267) (enzyme)
dH: -35.6 kcal/mol | stoichiometry N: 0.84
